Earlier results, collected in PMC11698047.
Where two headings read alike, the source gives them in different places.

How the values were obtained:
M-Ras (Homo sapiens) = M-Ras (Homo sapiens) (UniProt O14807)
Rap2 (Homo sapiens) = Rap2 (Homo sapiens) (UniProt P10114)
R-Ras (Homo sapiens) = R-Ras (Homo sapiens) (UniProt P10301)
TC21 (Homo sapiens) = TC21 (Homo sapiens) (UniProt P62070)
H-Ras (Homo sapiens) [1] = molecular target: H-Ras (Homo sapiens) (UniProt P01112)
Rap1 (Homo sapiens) = Rap1 (Homo sapiens) (UniProt P62834)
Rap1 (Homo sapiens), sequence (P62834 1-181): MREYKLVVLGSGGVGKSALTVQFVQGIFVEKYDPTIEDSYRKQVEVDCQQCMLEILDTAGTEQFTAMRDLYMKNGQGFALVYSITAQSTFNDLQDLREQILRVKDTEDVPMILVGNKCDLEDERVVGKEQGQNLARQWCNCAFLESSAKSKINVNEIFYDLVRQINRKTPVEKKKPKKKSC

H-Ras (Homo sapiens) [2] = molecular target: H-Ras (Homo sapiens) (UniProt P01112); remark: listed apart in the source
Ras (Homo sapiens) [3] = molecular target: Ras (Homo sapiens) (UniProt P01112)
Ras (Homo sapiens) [4] = molecular target: Ras (Homo sapiens) (UniProt P01112); remark: listed apart in the source

Afadin RA1, sequence (P55196 39-133): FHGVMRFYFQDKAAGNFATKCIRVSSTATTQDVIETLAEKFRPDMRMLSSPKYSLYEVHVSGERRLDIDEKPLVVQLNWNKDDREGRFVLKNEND
Rap2 (Homo sapiens), sequence (P10114 1-180): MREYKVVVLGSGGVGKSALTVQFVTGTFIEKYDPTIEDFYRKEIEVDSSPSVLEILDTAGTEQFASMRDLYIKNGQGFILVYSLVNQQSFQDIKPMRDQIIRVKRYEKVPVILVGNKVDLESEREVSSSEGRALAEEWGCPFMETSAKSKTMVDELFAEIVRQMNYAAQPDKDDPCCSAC
Afadin RA2, sequence (P55196 246-348): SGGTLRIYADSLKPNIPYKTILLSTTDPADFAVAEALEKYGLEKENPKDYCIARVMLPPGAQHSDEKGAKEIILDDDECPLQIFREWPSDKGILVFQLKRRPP
Afadin RA1 without N-terminal α-helix, sequence (P55196 39-133): as the sequence (P55196 39-133) above
TC21 (Homo sapiens), sequence (P62070 2-201): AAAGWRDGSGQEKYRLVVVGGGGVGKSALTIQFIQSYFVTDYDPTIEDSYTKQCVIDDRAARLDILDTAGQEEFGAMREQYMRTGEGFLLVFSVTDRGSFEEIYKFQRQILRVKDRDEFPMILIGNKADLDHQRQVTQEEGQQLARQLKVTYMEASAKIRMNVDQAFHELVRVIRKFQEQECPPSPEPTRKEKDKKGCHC
R-Ras (Homo sapiens), sequence (P10301 1-215): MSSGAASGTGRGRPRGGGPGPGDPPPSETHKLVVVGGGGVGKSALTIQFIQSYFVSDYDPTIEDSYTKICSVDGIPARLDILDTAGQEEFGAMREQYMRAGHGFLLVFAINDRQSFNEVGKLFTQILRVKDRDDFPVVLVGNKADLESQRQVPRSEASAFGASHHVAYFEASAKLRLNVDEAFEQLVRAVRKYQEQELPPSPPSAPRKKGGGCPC
Afadin RA1 with N-terminal α-helix, sequence (P55196 1-141): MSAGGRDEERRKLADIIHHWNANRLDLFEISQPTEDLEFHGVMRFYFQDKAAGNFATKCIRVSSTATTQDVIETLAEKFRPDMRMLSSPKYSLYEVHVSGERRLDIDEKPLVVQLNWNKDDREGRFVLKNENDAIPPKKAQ

Afadin RA1 (from UniProt P55196)
Kd (M-Ras (Homo sapiens)): 2.5 µM | Kd (Rap2 (Homo sapiens)): 2.5 µM | Kd (R-Ras (Homo sapiens)): 16 µM | Kd (TC21 (Homo sapiens)): 16 µM | Kd (H-Ras (Homo sapiens) [1]): 2.5 µM | Kd (Rap1 (Homo sapiens)): 0.24 µM

Afadin RA2 (from UniProt P55196)
Kd (H-Ras (Homo sapiens) [2]): 30 µM

Afadin RA1 without N-terminal α-helix (from UniProt P55196)
Kd (Ras (Homo sapiens) [3]): 17.8 µM

Afadin RA1 with N-terminal α-helix (from UniProt P55196)
Kd (Ras (Homo sapiens) [4]): 4.1 µM
